In publication PMC12333503 one finds fold of co-precipitated FL-Venus (ratio of FL-Venus to FLAG in the IP) relative to FLAG-FL and fold of co-precipitated FL-Venus (ratio of FL-Venus to FLAG in the IP) relative to FLAG-MP18 data, which are given here for 1 substance.

The assay concerns the target FLAG-tagged TDP-marginal peptide 20 (TDP-MP20), shortened splicing isoform of TDP-43 (human (cDNA cloned from HEK293T cells)). Description: co-IP; HEK293T cells co-overexpressing a FLAG-tagged TDP-43 isoform and FL-Venus; IP with anti-DDDDK (FLAG) antibody, 3 h at 4°C, Protein G Mag Sepharose beads, three low-salt washes and one high-salt wash; Venus signal normalised to FLAG signal in the IP (n = 3).

Chain of FLAG-tagged TDP-marginal peptide 20 (TDP-MP20), shortened splicing isoform of TDP-43 (human (cDNA cloned from HEK293T cells)) (Q13148 whole entry, canonical isoform): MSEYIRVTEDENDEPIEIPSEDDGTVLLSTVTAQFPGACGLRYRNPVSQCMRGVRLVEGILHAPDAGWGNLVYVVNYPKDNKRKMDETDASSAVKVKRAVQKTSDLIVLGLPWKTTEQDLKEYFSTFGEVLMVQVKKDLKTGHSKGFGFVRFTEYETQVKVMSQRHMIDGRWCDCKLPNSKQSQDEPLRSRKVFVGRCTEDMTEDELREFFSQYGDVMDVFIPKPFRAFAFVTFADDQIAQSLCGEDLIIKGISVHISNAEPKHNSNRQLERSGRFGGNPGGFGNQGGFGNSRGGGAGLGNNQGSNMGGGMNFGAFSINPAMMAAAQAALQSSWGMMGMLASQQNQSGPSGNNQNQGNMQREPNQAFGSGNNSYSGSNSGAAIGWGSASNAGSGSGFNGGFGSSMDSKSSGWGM

In the case of “TDP-FL fused to Venus (from UniProt Q13148 1-414) (natural protein)”, the fold of co-precipitated FL-Venus (ratio of FL-Venus to FLAG in the IP) relative to FLAG-FL was 5.7 fold and the fold of co-precipitated FL-Venus (ratio of FL-Venus to FLAG in the IP) relative to FLAG-MP18 stood at 2.3 fold.
